T1: AlpZ (Streptomyces ambofaciens, UniProt Q6VMG9 1-237)
T1 sequence: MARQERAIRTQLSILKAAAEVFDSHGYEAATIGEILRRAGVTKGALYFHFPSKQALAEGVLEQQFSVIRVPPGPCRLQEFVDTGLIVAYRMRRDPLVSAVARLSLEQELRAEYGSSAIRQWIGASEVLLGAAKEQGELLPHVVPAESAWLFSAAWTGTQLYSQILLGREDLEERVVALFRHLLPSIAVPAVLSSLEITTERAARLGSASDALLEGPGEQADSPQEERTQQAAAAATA


How the values were obtained:
AlpZ [1] = molecular target: T1, AlpZ; assay: switchSENSE; no association observed; switchSENSE: PE40 pH 7.4 (10 mM Na phosphate, 40 mM NaCl, 0.05% Tween20, 50 uM EDTA, 50 uM EGTA), 30 C; EMSA: 20 mM HEPES pH 7.6, 1 mM EDTA, 10 mM (NH4)2SO4, 1; details: protein: recombinant; chain copies: 2; label: fluorescent nanolever on the switchSENSE chip; 40 bp duplex with 3' overhang 48 nt on strand 1, hybridized to chip nanolever
AlpZ [2] = molecular target: T1, AlpZ; assay: switchSENSE; AlpZ 50 nM; kON 1.38e5 M-1 s-1, kOFF 1.05e-4 s-1 (printed rates give 0.76 nM, inconsistent with printed KD); switchSENSE: PE40 pH 7.4 (10 mM Na phosphate, 40 mM NaCl, 0.05% Tween20, 50 uM EDTA, 50 uM EGTA), 30 C; EMSA: 20 mM HEPES pH 7.6, 1 mM EDTA, 10 mM (NH4)2SO4, 1; details: protein: recombinant; chain copies: 2; label: fluorescent nanolever on the switchSENSE chip; 40 bp duplex with 3' overhang 48 nt on strand 1, hybridized to chip nanolever

| Binder | binding result (AlpZ [1]) | Kd (AlpZ [2]) [nM] |
| --- | --- | --- |
| nanoControl dsoverhang (dsDNA) DNA 1: GGGGGGTGTGAGAACGGGGTGTTCTGGTGTTTGCGCCGGAATCAGCGTTCGATGCTTCCGACTAATCAGCCATATCAGCTTACGACTA DNA 2: TCCGGCGCAAACACCAGAACACCCCGTTCTCACACCCCCC | no binding | – |
| nanoAREV dsoverhang (dsDNA) DNA 1: CTCACATTGACAAACCGACTGTGCTGTTTTTTTATCAGGGATCAGCGTTCGATGCTTCCGACTAATCAGCCATATCAGCTTACGACTA DNA 2: CCCTGATAAAAAAACAGCACAGTCGGTTTGTCAATGTGAG | – | 37.1 ± 3.3 |

From publication PMC7343708, “Molecular Dynamics to Elucidate the DNA-Binding Activity of AlpZ, a Member of the Gamma-Butyrolactone Receptor Family in Streptomyces ambofaciens”
